System: HEK293FT cells transfected with TF library
Test: Screening of TF condensates based on fluorescent puncta
Assay type: cell-based
Conditions: Figure 1B numerical data; TF library screen, one value per transcriptional factor
Outline: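 HEK293FT cells were reverse-transfected with Flag- or GAL4-tagged TF plasmids (1.6 μg/ml, PEI). After 60 h, cells were cultured 12 h with or without glucose, then fixed and immunostained with anti-Flag or anti-GAL4 and Alexa 488 secondaries. Fluorescent puncta were imaged over fifty random fields per well by high-content imaging.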

B1: GTF2I (protein, UniProt P78347 2-998, looked up)
General transcription factor …: AQVAMSTLPVEDEESSESRMVVTFLMSALESMCKELAKSKAEVACIAVYETDVFVVGTERGRAFVNTRKDFQKDFVKYCVEEEEKAAEMHKMKSTTQANRMSVDAVEIETLRKTVEDYFCFCYGKALGKSTVVPVPYEKMLRDQSAVVVQGLPEGVAFKHPENYDLATLKWILENKAGISFIIKRPFLEPKKHVGGRVMVTDADRSILSPGGSCGPIKVKTEPTEDSGISLEMAAVTVKEESEDPDYYQYNIQAGPSETDDVDEKQPLSKPLQGSHHSSEGNEGTEMEVPAEDSTQHVPSETSEDPEVEVTIEDDDYSPPSKRPKANELPQPPVPEPANAGKRKVREFNFEKWNARITDLRKQVEELFERKYAQAIKAKGPVTIPYPLFQSHVEDLYVEGLPEGIPFRRPSTYGIPRLERILLAKERIRFVIKKHELLNSTREDLQLDKPASGVKEEWYARITKLRKMVDQLFCKKFAEALGSTEAKAVPYQKFEAHPNDLYVEGLPENIPFRSPSWYGIPRLEKIIQVGNRIKFVIKRPELLTHSTTEVTQPRTNTPVKEDWNVRITKLRKQVEEIFNLKFAQALGLTEAVKVPYPVFESNPEFLYVEGLPEGIPFRSPTWFGIPRLERIVRGSNKIKFVVKKPELVISYLPPGMASKINTKALQSPKRPRSPGSNSKVPEIEVTVEGPNNNNPQTSAVRTPTQTNGSNVPFKPRGREFSFEAWNAKITDLKQKVENLFNEKCGEALGLKQAVKVPFALFESFPEDFYVEGLPEGVPFRRPSTFGIPRLEKILRNKAKIKFIIKKPEMFETAIKESTSSKSPPRKINSSPNVNTTASGVEDLNIIQVTIPDDDNERLSKVEKARQLREQVNDLFSRKFGEAIGMGFPVKVPYRKITINPGCVVVDGMPPGVSFKAPSYLEISSMRRILDSAEFIKFTVIRPFPGLVINNQLVDQSESEGPVIQESAEPSQLEVPATEEIKETDGSSQIKQEPDPTW
Z score of condensed fraction: 0.02684

B2: GLI1 (protein, UniProt P08151 1-1106, looked up)
Zinc finger protein GLI1: MFNSMTPPPISSYGEPCCLRPLPSQGAPSVGTEGLSGPPFCHQANLMSGPHSYGPARETNSCTEGPLFSSPRSAVKLTKKRALSISPLSDASLDLQTVIRTSPSSLVAFINSRCTSPGGSYGHLSIGTMSPSLGFPAQMNHQKGPSPSFGVQPCGPHDSARGGMIPHPQSRGPFPTCQLKSELDMLVGKCREEPLEGDMSSPNSTGIQDPLLGMLDGREDLEREEKREPESVYETDCRWDGCSQEFDSQEQLVHHINSEHIHGERKEFVCHWGGCSRELRPFKAQYMLVVHMRRHTGEKPHKCTFEGCRKSYSRLENLKTHLRSHTGEKPYMCEHEGCSKAFSNASDRAKHQNRTHSNEKPYVCKLPGCTKRYTDPSSLRKHVKTVHGPDAHVTKRHRGDGPLPRAPSISTVEPKREREGGPIREESRLTVPEGAMKPQPSPGAQSSCSSDHSPAGSAANTDSGVEMTGNAGGSTEDLSSLDEGPCIAGTGLSTLRRLENLRLDQLHQLRPIGTRGLKLPSLSHTGTTVSRRVGPPVSLERRSSSSSSISSAYTVSRRSSLASPFPPGSPPENGASSLPGLMPAQHYLLRARYASARGGGTSPTAASSLDRIGGLPMPPWRSRAEYPGYNPNAGVTRRASDPAQAADRPAPARVQRFKSLGCVHTPPTVAGGGQNFDPYLPTSVYSPQPPSITENAAMDARGLQEEPEVGTSMVGSGLNPYMDFPPTDTLGYGGPEGAAAEPYGARGPGSLPLGPGPPTNYGPNPCPQQASYPDPTQETWGEFPSHSGLYPGPKALGGTYSQCPRLEHYGQVQVKPEQGCPVGSDSTGLAPCLNAHPSEGPPHPQPLFSHYPQPSPPQYLQSGPYTQPPPDYLPSEPRPCLDFDSPTHSTGQLKAQLVCNYVQSQQELLWEGGGREDAPAQEPSYQSPKFLGGSQVSPSRAKAPVNTYGPGFGPNLPNHKSGSYPTPSPCHENFVVGANRASHRAAAPPRLLPPLPTCYGPLKVGGTNPSCGHPEVGRLGGGPALYPPPEGQVCNPLDSLDLDNTQLDFVAILDEPQGLSPPPSHDQRGSSGHTPPPSGPPNMAVGNMSVLLRSLPGETEFLNSSA
Z score of condensed fraction: 1.126

B3: GLIS3 (protein, UniProt Q8NEA6 1-775, looked up)
Zinc finger protein GLIS3: MMVQRLGLISPPASQVSTACNQISPSLQRAMNAANLNIPPSDTRSLISRESLASTTLSLTESQSASSMKQEWSQGYRALPSLSNHGSQNGLDLGDLLSLPPGTSMSSNSVSNSLPSYLFGTESSHSPYPSPRHSSTRSHSARSKKRALSLSPLSDGIGIDFNTIIRTSPTSLVAYINGSRASPANLSPQPEVYGHFLGVRGSCIPQPRPVPGSQKGVLVAPGGLALPAYGEDGALEHERMQQLEHGGLQPGLVNHMVVQHGLPGPDSQSAGLFKTERLEEFPGSTVDLPPAPPLPPLPPPPGPPPPYHAHAHLHHPELGPHAQQLALPQATLDDDGEMDGIGGKHCCRWIDCSALYDQQEELVRHIEKVHIDQRKGEDFTCFWAGCPRRYKPFNARYKLLIHMRVHSGEKPNKCTFEGCEKAFSRLENLKIHLRSHTGEKPYLCQHPGCQKAFSNSSDRAKHQRTHLDTKPYACQIPGCTKRYTDPSSLRKHVKAHSSKEQQARKKLRSSTELHPDLLTDCLTVQSLQPATSPRDAAAEGTVGRSPGPGPDLYSAPIFSSNYSSRSGTAAGAVPPPHPVSHPSPGHNVQGSPHNPSSQLPPLTAVDAGAERFAPSAPSPHHISPRRVPAPSSILQRTQPPYTQQPSGSHLKSYQPETNSSFQPNGIHVHGFYGQLQKFCPPHYPDSQRIVPPVSSCSVVPSFEDCLVPTSMGQASFDVFHRAFSTHSGITVYDLPSSSSSLFGESLRSGAEDATFLQISTVDRCPSQLSSVYTEG
Z score of condensed fraction: 0.8153

B4: GMNN (protein, UniProt O75496 1-209, looked up)
Geminin: MNPSMKQKQEEIKENIKNSSVPRRTLKMIQPSASGSLVGRENELSAGLSKRKHRNDHLTSTTSSPGVIVPESSENKNLGGVTQESFDLMIKENPSSQYWKEVAEKRRKALYEALKENEKLHKEIEQKDNEIARLKKENKELAEVAEHVQYMAELIERLNGEPLDNFESLDNQEFDSEEETVEDSLVEDSEIGTCAEGTVSSSTDAKPCI
Z score of condensed fraction: 0.2471

B5: GTF2A1L (protein, UniProt Q9UNN4 1-478, looked up)
TFIIA-alpha and beta-like …: MACLNPVPKLYRSVIEDVIEGVRNLFAEEGIEEQVLKDLKQLWETKVLQSKATEDFFRNSIQSPLFTLQLPHSLHQTLQSSTASLVIPAGRTLPSFTTAELGTSNSSANFTFPGYPIHVPAGVTLQTVSGHLYKVNVPIMVTETSGRAGILQHPIQQVFQQLGQPSVIQTSVPQLNPWSLQATTEKSQRIETVLQQPAILPSGPVDRKHLENATSDILVSPGNEHKIVPEALLCHQESSHYISLPGVVFSPQVSQTNSNVESVLSGSASMAQNLHDESLSTSPHGALHQHVTDIQLHILKNRMYGCDSVKQPRNIEEPSNIPVSEKDSNSQVDLSIRVTDDDIGEIIQVDGSGDTSSNEEIGSTRDADENEFLGNIDGGDLKVPEEEADSISNEDSATNSSDNEDPQVNIVEEDPLNSGDDVSEQDVPDLFDTDNVIVCQYDKIHRSKNKWKFYLKDGVMCFGGRDYVFAKAIGDAEW
Z score of condensed fraction: 3.206

B6: GPS2 (protein, UniProt Q13227 1-327, looked up)
G protein pathway suppressor 2: MPALLERPKLSNAMARALHRHIMMERERKRQEEEEVDKMMEQKMKEEQERRKKKEMEERMSLEETKEQILKLEEKLLALQEEKHQLFLQLKKVLHEEEKRRRKEQSDLTTLTSAAYQQSLTVHTGTHLLSMQGSPGGHNRPGTLMAADRAKQMFGPQVLTTRHYVGSAAAFAGTPEHGQFQGSPGGAYGTAQPPPHYGPTQPAYSPSQQLRAPSAFPAVQYLSQPQPQPYAVHGHFQPTQTGFLQPGGALSLQKQMEHANQQTGFSDSSSLRPMHPQALHPAPGLLASPQLPVQMQPAGKSGFAATSQPGPRLPFIQHSQNPRFYHK
Z score of condensed fraction: -0.6135

B7: GTF2A1 (protein, UniProt P52655 2-376, looked up)
Transcription initiation …: ANSANTNTVPKLYRSVIEDVINDVRDIFLDDGVDEQVLMELKTLWENKLMQSRAVDGFHSEEQQLLLQVQQQHQPQQQQHHHHHHHQQAQPQQTVPQQAQTQQVLIPASQQATAPQVIVPDSKLIQHMNASNMSAAATAATLALPAGVTPVQQILTNSGQLLQVVRAANGAQYIFQPQQSVVLQQQVIPQMQPGGVQAPVIQQVLAPLPGGISPQTGVIIQPQQILFTGNKTQVIPTTVAAPTPAQAQITATGQQQPQAQPAQTQAPLVLQVDGTGDTSSEEDEDEEEDYDDDEEEDKEKDGAEDGQVEEEPLNSEDDVSDEEGQELFDTENVVVCQYDKIHRSKNKWKFHLKDGIMNLNGRDYIFSKAIGDAEW
Z score of condensed fraction: 0.06864

B8: GLI4 (protein, UniProt P10075 1-376, looked up)
Zinc finger protein GLI4: MAALGDIQESPSVPSPVSLSSPGTPGTQHHEPQLHLHGHQHGSPGSSPKVLSQPSDLDLQDVEEVEIGRDTFWPDSEPKPEQAPRSPGSQAPDEGAGGALRSLLRSLPRRARCSAGFGPESSAERPAGQPPGAVPCAQPRGAWRVTLVQQAAAGPEGAPERAAELGVNFGRSRQGSARGAKPHRCEACGKSFKYNSLLLKHQRIHTGEKPYACHECGKRFRGWSGFIQHHRIHTGEKPYECGQCGRAFSHSSHFTQHLRIHNGEKPYKCGECGQAFSQSSNLVRHQRLHTGEKPYACSQCGKAFIWSSVLIEHQRIHTGEKPYECSDCGKAFRGRSHFFRHLRTHTGEKPFACGACGKAFGQSSQLIQHQRVHYRE
Z score of condensed fraction: 0.3449

B9: GRHL3 (protein, UniProt Q8TE85 1-626, looked up)
Grainyhead-like protein 3 …: MSNELDFRSVRLLKNDPVNLQKFSYTSEDEAWKTYLENPLTAATKAMMRVNGDDDSVAALSFLYDYYMGPKEKRILSSSTGGRNDQGKRYYHGMEYETDLTPLESPTHLMKFLTENVSGTPEYPDLLKKNNLMSLEGALPTPGKAAPLPAGPSKLEAGSVDSYLLPTTDMYDNGSLNSLFESIHGVPPTQRWQPDSTFKDDPQESMLFPDILKTSPEPPCPEDYPSLKSDFEYTLGSPKAIHIKSGESPMAYLNKGQFYPVTLRTPAGGKGLALSSNKVKSVVMVVFDNEKVPVEQLRFWKHWHSRQPTAKQRVIDVADCKENFNTVEHIEEVAYNALSFVWNVNEEAKVFIGVNCLSTDFSSQKGVKGVPLNLQIDTYDCGLGTERLVHRAVCQIKIFCDKGAERKMRDDERKQFRRKVKCPDSSNSGVKGCLLSGFRGNETTYLRPETDLETPPVLFIPNVHFSSLQRSGGAAPSAGPSSSNRLPLKRTCSPFTEEFEPLPSKQAKEGDLQRVLLYVRRETEEVFDALMLKTPDLKGLRNAISEKYGFPEENIYKVYKKCKRGETSLLHPRLSRHPPPDCLECSHPVTQVRNMGFGDGFWRQRDLDSNPSPTTVNSLHFTVNSE
Z score of condensed fraction: -0.6859
